Measurements published in US20250101135A1.

How the values were obtained:
[1] = target: mouse 4-1BB on activated mouse splenocytes (mouse) (UniProt P20334); test: flow cytometry, activated mouse splenocytes, CD8+ T cells, PE anti-human IgG Fc secondary, MFI baseline corrected
[2] = target: mouse 4-1BB on activated mouse splenocytes (mouse) (UniProt P20334); test: flow cytometry, activated mouse splenocytes, CD4+ T cells, PE anti-human IgG Fc secondary, MFI baseline corrected

Chain of mouse 4-1BB on activated mouse splenocytes (mouse) (P20334 24-256): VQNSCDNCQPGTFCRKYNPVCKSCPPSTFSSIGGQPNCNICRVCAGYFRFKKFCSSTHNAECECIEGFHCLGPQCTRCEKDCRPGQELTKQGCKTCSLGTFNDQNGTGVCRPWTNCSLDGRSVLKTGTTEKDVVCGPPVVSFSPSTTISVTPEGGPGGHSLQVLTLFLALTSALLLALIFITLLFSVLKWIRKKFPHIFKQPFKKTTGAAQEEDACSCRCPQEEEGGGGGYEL

## anti-mouse CD137-specific human IgG1 P329G LALA antibody (clone Lob12.3)
[1]
  EC50 (read off the curve): 0.09 nM
[2]
  EC50 (read off the curve): 0.08 nM
